Source: patent publication US20250092426, “CAS ENDONUCLEASES AND RELATED METHODS” (Flagship Pioneering Innovations VII, LLC, published 2025)

Target: T1, CasEnd-7 (synthetic construct)
T1 chain: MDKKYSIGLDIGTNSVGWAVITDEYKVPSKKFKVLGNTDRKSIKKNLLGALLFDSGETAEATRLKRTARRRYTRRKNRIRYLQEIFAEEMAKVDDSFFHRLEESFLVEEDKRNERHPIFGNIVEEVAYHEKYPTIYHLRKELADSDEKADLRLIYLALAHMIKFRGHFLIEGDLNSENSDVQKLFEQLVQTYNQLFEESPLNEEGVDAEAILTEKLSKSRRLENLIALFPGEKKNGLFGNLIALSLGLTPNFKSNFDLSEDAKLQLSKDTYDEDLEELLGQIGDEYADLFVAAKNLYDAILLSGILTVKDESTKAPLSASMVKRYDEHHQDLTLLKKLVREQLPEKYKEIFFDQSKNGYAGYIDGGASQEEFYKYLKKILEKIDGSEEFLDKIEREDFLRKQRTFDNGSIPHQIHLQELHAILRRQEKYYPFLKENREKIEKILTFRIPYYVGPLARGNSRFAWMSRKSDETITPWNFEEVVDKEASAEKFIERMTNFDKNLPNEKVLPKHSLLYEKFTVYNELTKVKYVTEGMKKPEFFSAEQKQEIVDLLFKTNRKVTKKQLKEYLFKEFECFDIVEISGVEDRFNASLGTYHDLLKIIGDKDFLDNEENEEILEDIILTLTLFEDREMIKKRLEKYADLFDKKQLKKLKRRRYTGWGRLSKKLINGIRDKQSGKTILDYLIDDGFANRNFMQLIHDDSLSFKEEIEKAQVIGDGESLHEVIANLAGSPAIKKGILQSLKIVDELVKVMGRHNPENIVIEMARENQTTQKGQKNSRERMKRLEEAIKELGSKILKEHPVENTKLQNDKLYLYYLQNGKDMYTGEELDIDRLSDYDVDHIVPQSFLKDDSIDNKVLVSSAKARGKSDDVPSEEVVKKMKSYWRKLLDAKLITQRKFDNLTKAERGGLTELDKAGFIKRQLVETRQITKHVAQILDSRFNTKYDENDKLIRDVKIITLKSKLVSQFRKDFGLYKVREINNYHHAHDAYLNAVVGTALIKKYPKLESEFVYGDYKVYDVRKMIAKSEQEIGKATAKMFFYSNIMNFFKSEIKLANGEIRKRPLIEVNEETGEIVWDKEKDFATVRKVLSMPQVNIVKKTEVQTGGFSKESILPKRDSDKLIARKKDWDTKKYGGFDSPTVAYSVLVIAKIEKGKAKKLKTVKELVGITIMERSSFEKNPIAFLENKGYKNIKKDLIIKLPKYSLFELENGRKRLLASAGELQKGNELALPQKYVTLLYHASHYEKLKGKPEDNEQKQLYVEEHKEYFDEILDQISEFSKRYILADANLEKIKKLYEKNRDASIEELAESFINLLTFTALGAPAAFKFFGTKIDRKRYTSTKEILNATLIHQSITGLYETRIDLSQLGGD
Test: cell_activity; +++; HEK293T; PAM not stated
Outline: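 Editing activity was scored as the fraction of GFP+ cells on day 4 by flow cytometry. BFP-expressing HEK293T cells (250,000) received by nucleofection 200 ng plasmid for the RT-Cas fusion protein and 200 ng template RNA plasmid designed to convert BFP to GFP.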

B1: BFP-to-GFP template RNA ; BFP reporter protospacer (ssRNA ; dsDNA)
RNA: GCCGAAGCACUGCACGCCGUGUUUUAGAGCUAGAAAUAGCAAGUUAAAAUAAGGCUAGUCCGUUAUCAACUUGAAAAAGUGGCACCGAGUCGGUGCACCCUGACGUACGGCGUGCAGUGCUU
DNA 1: GCCGAAGCACTGCACGCCGT
DNA 2: ACGGCGTGCAGTGCTTCGGC
In the case of B1, the activity is reported as ≥ 100 % of reference.
